Data from publication PMC8688474 (Nature Communications, 2021).

Target: T1, WT SARS-CoV-2 RBD protein (SARS-CoV-2, Wuhan-Hu-1 (WT), UniProt P0DTC2)
T1 construct: also called WT RBD
Assay: ELISA
Details: both partners purified

B1: neutralizing MAb 2H2 (antibody, V domains shown)
VH: QVQLKQSGPSLVQPSQSLSITCTVSGFSLTSYGVHWVRQSPGKGLEWLGVMWRGGNTDYNAAFMSRLSITKDNSKSQVFFKMNSLQTDDTAIYYCAKNGGAHAMDFWGQGTSVTVSS
VL: NIVLTQSPASLAVSLGQRATISCRASESVDSYGNSFLHWYQQKPGQPPKLLIYLASNLESGVPARFSGSGSRTDFTLTIDPVEADDAATYYCQQNNEDPFTFGSGTKLEIK
binding result: binds

B2: neutralizing MAb 3C1 (antibody, V domains shown)
VH: EVQLQESGPSLVKPSQTLSLTCSVTGDSITNGYWNWIRKFPGNKLEYMGYISYSGSTYYSPSLKSRISITRDTSKNQHYLQLNSVTSEDTATYYCASDYHGSKYYFDYWGQGTTLTVSS
VL: DIVMTQSHKFMSTSVGHRVSITCKASQDVGNDVAWYQQKPGQSPKLLIYWASTRHTGVPDRFTGSGSGTDFTLTISNVQSEDLADYFCQQYNRYPYTFGGGTKLEIK
binding result: binds
